Measured values published in publication PMC3701320, “Crystal Structures of Malonyl-Coenzyme A Decarboxylase Provide Insights into Its Catalytic Mechanism and Disease-Causing Mutations” (Structure(London, England:1993), 2013).
Numbering of substitutions follows the chain as printed. Names may count otherwise.

Experiments:
[1] = target: Rhodopseudomonas palustris malonyl-CoA decarboxylase (RpMCD), residues 8-451 (Rhodopseudomonas palustris); experiment: multiangle static light scattering; oligomeric state in solution; data not shown
[2] = target: Cupriavidus metallidurans malonyl-CoA decarboxylase (CmMCD), residues 57-473 (Cupriavidus metallidurans); experiment: not stated; oligomeric state of CmMCD in solution; method not given
[3] = target: the molecule itself; experiment: multiangle static light scattering; oligomeric state in solution; data not shown
[4] = target: the molecule itself; experiment: SEC + AUC; analytical gel filtration on Superdex 200 in 10 mM HEPES pH 7.5, 150 mM NaCl; sedimentation velocity at 30,000 rpm, 4 °C, 50 μM HsMCD in the same buffer; oligomeric state in solution

Molecule: Rhodopseudomonas palustris malonyl-CoA decarboxylase (RpMCD), residues 8-451 (enzyme)
- stoichiometry N [1]: 4

Molecule: Cupriavidus metallidurans malonyl-CoA decarboxylase (CmMCD), residues 57-473 (enzyme)
- stoichiometry N [2]: 2

B1: Agrobacterium vitis malonyl-CoA decarboxylase (AvMCD), residues 1-448 (enzyme)
chain: MAGTSFLSDLLSGVTERGRALLFSGSKARDRVVDTDIETLCEMLLSSRGEASGMAIAAEILDRWSRFNAAEAVQFLHMLSDRFGAEAAALDKAIDAYRTDKSPMAVIALHNAAEPRRQELLRRLNLAPNGTQKLVRMRERLLETKEDRADLGAVDTDFAHLFSSWFNRGFLTLQPIDWTTPAHILEKIIKYEAVHEIAGWEELRRRLAPADRRCFAFFHPRLRDDPLVFVEVALTRSIPSAIADVLDESRDHIGADTATTAVFYSISNCQDGLRGISFGNFLIKQVVEDLRRDLPGLKEFVTLSPVPGFARWISKIRDPKSGFPLSPEDRNTLVLLDDPTWPEDKARADAVERILLPLAARYFITERTPDNRPVDPVARFHLGNGARLERLNFLGDRSVKAMRQAHGLMVNYLYKLEDIETNHEALAQRGEVAASPAVKALQGKIEPI
modifications: selenomethionyl (Se-Met labeled) protein
- stoichiometry N [3]: 4

B2: Wild-type human malonyl-coenzyme A decarboxylase (HsMCD), residues 40-491 (enzyme, UniProt O95822 40-491, looked up)
chain: MDELLRRAVPPTPAYELREKTPAPAEGQCADFVSFYGGLAETAQRAELLGRLARGFGVDHGQVAEQSAGVLHLRQQQREAAVLLQAEDRLRYALVPRYRGLFHHISKLDGGVRFLVQLRADLLEAQALKLVEGPDVREMNGVLKGMLSEWFSSGFLNLERVTWHSPCEVLQKISEAEAVHPVKNWMDMKRRVGPYRRCYFFSHCSTPGEPLVVLHVALTGDISSNIQAIVKEHPPSETEEKNKITAAIFYSISLTQQGLQGVELGTFLIKRVVKELQREFPHLGVFSSLSPIPGFTKWLLGLLNSQTKEHGRNELFTDSECKEISEITGGPINETLKLLLSSSEWVQSEKLVRALQTPLMRLCAWYLYGEKHRGYALNPVANFHLQNGAVLWRINWMADVSLRGITGSCGLMANYRYFLEETGPNSTSYLGSKIIKASEQVLSLVAQFQKNS
notes: Malonyl-CoA decarboxylase (MCD, E.C. 4.1.1.9), human, residues 40-491, corresponding to the mature mitochondrial form; The His6-tag is TEV-cleavable (vector pNIC28-Bsa4, GenBank EF198106); also called human MCD; Wild-type HsMCD
- stoichiometry N [4]: 4

B3: HsMCD E58A/K59A/E278A/E279A/K280A quintuple surface entropy reduction (SER) mutant, residues 40-491 (enzyme, human, UniProt O95822 40-491, looked up)
chain: B2 chain with E19A, K20A, E239A, E240A, K241A
notes: Malonyl-CoA decarboxylase (MCD), human, residues 40-491 (mature mitochondrial form) with five alanine substitutions for surface entropy reduction; The His6-tag is TEV-cleavable; Crystallised with a dimer in the asymmetric unit; the tetramer is generated through a crystallographic 2-fold axis; also called Quintuple SER mutant; SER quintuple mutant
- binding result [4]: binds
